The target of assay [1] is Venus-tagged mini-Gsi (mGsi). The experiment in a line: BRET. The note with it: HEK293 cells; WKYMVm at x = -5 (highest concentration), 10 min; parent: est. 0.076; read off a plot.
Assay [2] deals with β-arrestin 2 fused to Venus fluorescent protein (UniProt P32121). Kind of assay: BRET. The note with it: HEK293 cells; WKYMVm at x = -5 (highest concentration), 10 min; parent: est. 0.064; read off a plot.
Assay [3] addresses N-terminal FLAG-tagged human formyl-peptide receptor 2 fused C-terminally to Renilla luciferase (FPR2-Rluc8) (human) (UniProt P25090). The experiment in a line: FRET or BRET; BRET as a1, in ΔQ-GRK cells co-transfected with GRK2; WKYMVm 10 min.
The target is the same in assay [4]. Kind of assay: FRET or BRET; BRET as a1, in ΔQ-GRK cells co-transfected with GRK3; WKYMVm 10 min.
For assay [5] the target is unchanged. Kind of assay: FRET or BRET; BRET as a1, in ΔQ-GRK cells co-transfected with GRK5; WKYMVm 10 min.
For assay [6] the target is unchanged. The experiment in a line: FRET or BRET; BRET as a1, in ΔQ-GRK cells co-transfected with GRK6; WKYMVm 10 min.
For assay [7] the target is unchanged. Kind of assay: FRET or BRET; BRET as a1, in CRISPR-Cas9-edited HEK293 cells without GRK2/3 (ΔGRK2/3); WKYMVm 10 min.
Assay [8] shares this target. The experiment in a line: FRET or BRET; BRET as a1, in CRISPR-Cas9-edited HEK293 cells without GRK5/6 (ΔGRK5/6); WKYMVm 10 min.
The target is the same in assay [9]. The experiment in a line: FRET or BRET; BRET as a1, FPR2-RLuc8 with Venus-β-arrestin in Control cells of the GRK-edited HEK293 panel; WKYMVm 10 min.
Assay [10] concerns the target FPR2 ΔAB-RLuc8 (human) (UniProt P25090). Kind of assay: FRET or BRET; BRET in live HEK293 cells co-transfected with receptor-RLuc8 (donor, 400 ng) and Venus-tagged mGsi, β-arrestin 1 or β-arrestin 2 (acceptor), 4:1 acceptor:donor; 37°C, Hank's balanced salt solution, 5 μM coelenterazine H; increasing WKYMVm, read 10 min after agonist; ratio acceptor:donor minus untreated; Emax by nonlinear regression; pertussis toxin pretreatment had no effect on β-arrestin recruitment.

Assay [11] has as its target FPR2 ΔABC with S326 reintroduced, RLuc8 fusion (human) (UniProt P25090). Described as above.
Assay [12] addresses FPR2 ΔABC with S328 (printed once as S329) reintroduced, RLuc8 fusion (human) (UniProt P25090). The assay is described as above.
For assay [13], the target named is FPR2 ΔABC with T331 reintroduced, RLuc8 fusion (human) (UniProt P25090). Described as above.
The target of assay [14] is FPR2 ΔABC-RLuc8 (all C-terminal serine and threonine residues mutated to alanine) (human) (UniProt P25090). Described as above.
The target in assay [15] is FPR2 ΔAC-RLuc8 (human) (UniProt P25090). Described as above.
Assay [16] deals with FPR2 ΔBC-RLuc8 (human) (UniProt P25090). Described as above.
The target in assay [17] is N-terminal FLAG-tagged human formyl-peptide receptor 2 fused C-terminally to Renilla luciferase (FPR2-Rluc8) (human) (UniProt P25090). The assay is described as above.
The target in assay [18] is FPR2 S326A-RLuc8 (human) (UniProt P25090). Described as above.
Assay [19] addresses FPR2 S328A-RLuc8 (human) (UniProt P25090). The description is as above.
The target in assay [20] is FPR2 T331A-RLuc8 (human) (UniProt P25090). The description is as above.
For assay [21], the target named is N-terminal FLAG-tagged human formyl-peptide receptor 2 fused C-terminally to Renilla luciferase (FPR2-Rluc8) (human) (UniProt P25090). Described as above. This is another data set of the same source.

For the substance “N-terminal FLAG-tagged human formyl-peptide receptor 2 fused C-terminally to Renilla luciferase (FPR2-Rluc8) (from UniProt P25090) DAC (… to …; R to A of the DRC motif)”, the response was 0 N-BRET in assay [1] and 0.033 N-BRET in [2].
Consider “β-arrestin 1 fused to Venus fluorescent protein (from UniProt P49407 1-418) (natural protein)”, for which the Emax (BRET) (normalized acceptor:donor ratio) was 0.0822 in assay [3]; 0.0855 in assay [4]; 0.0884 in [5]; 0.0557 in [6]; 0.0708 in assay [7]; 0.0299 in [8]. The Emax (BRET) (normalized acceptor:donor ratio) in assay [9] was 0.0931; in assay [10], 0.0359; in assay [11] it was 0.00242; in assay [12], -0.00162; in assay [13] it was -0.000883; in assay [14] it was 0.00138. The Emax (BRET) (normalized acceptor:donor ratio) in [15] is 0.0638; in assay [16], 0.000955; in assay [17], 0.0782; in [18], 0.0623; in assay [19] it was 0.0481; in [20] it was 0.0667. Also, the Emax (BRET) (normalized acceptor:donor ratio) in [21] was found to be 0.0821.
As for “β-arrestin 2 fused to Venus fluorescent protein (from UniProt P32121 1-409) (natural protein)”, the Emax (BRET) (normalized acceptor:donor ratio) is 0.0987 in assay [3]; 0.0949 in [4]; 0.0971 in [5]; 0.0583 in [6]; 0.0807 in assay [7]; 0.0541 in assay [8]. For the same substance, the Emax (BRET) (normalized acceptor:donor ratio) in [9] worked out at 0.098; in assay [10] it was 0.0396; in assay [11], 0.0217; in assay [12], 0.0111; in assay [13] it was 0.0194; in assay [14] it was 0.0146. For the same substance, the Emax (BRET) (normalized acceptor:donor ratio) in assay [15] turned out to be 0.0691; in assay [16], 0.0015; in assay [17], 0.0715; in assay [18] it was 0.0605; in assay [19], 0.0608; in assay [20] it was 0.0611. Moreover, the Emax (BRET) (normalized acceptor:donor ratio) in assay [21] is 0.0854.
